The source of these data is patent publication US20190367607A1 (DUKE UNIVERSITY, published 2019).

B1: HB22-103 (antibody, V domains shown)
VH: QVQLQQPGTELVKPGASVKLSCKASGYTFTSYWMHWVKQRPGQGLEWIGMIHPNRGTTNYNEKFKSKATLTVDKSSSTAYMQLSSLTSEDSAVYYCARYYDYDPDYWGQGTTLTVSS
VL: DIVLTQSPATLSVTPGDSVSLSCRASQSISNNLHWFQQKSHESPRLLIKYGYQSISGIPSRFSGSGSGTDFTLSINSVETEDFGMYFCQQSYRWPYTFGGGTKLEIK
notes: also called HB22-103 mAb; HB22 mAb
B2: HB22-115 (antibody, V domains shown)
VH: QVQLQQPGAELVKPGASVKLSCKASGYTFTSYWMHWVKQRPGQGLEWIGMIHPNSGSTNYSEKFKSKATLTVDKSSSTAYMQLSSLTSEDSAVYYCARYYDYDPDYWGQGTTLTVSS
VL: DIVLTQSPATLSVTPGDSVTLSCRASQGISNNLHWYQQQSHESPRLLIKFTSQSVSGIPSRFSGSGSGTDFTLSVNSVETEDFGMYFCQQSNRWPYTFGGGTKLEIK
notes: Mouse IgG1 monoclonal antibody to human CD22; also called HB22-115 mAb; HB22 mAb
B3: HB22-107 (antibody, V domains shown)
VH: DVKLVESGEGLVKPGGSLKLSCAASGFTFSSYAMSWVRQTPEKRLEWVAYITSGGDYIYYADTVKGRFTISRDDARNTLYLQMSSLKSEDTAMYYCTRDQGYYYDGRPTWFAYWGQGTLVTVSA
VL: DIVMIQSPSSLAMSVGQKVTMRCKSSQSLLSSSNQKNYLAWYQQKPGQSPKLLVYFASTRESGVPDRFIGSGSGTDFTLTINSVQAEDLADYFCQQHYSTPLTFGAGTKLELK
notes: Mouse IgG1 monoclonal antibody to human CD22; also called HB22-107 mAb; HB22 mAb

This assay concerns the target T1, human CD22 on B cells of hCD22-Tg+/+ mCD22-/- transgenic mice (human, UniProt P20273 20-847).
T1 construct: whole, on cells; Expressed from the human CD22 gene with its endogenous regulatory elements
The experiment in a line: flow cytometry of blood B220+ B cells from hCD22-Tg mice 7 days after mAb injection, stained with anti-mouse IgG1. Here is the method:
FIGS. 20A-20B are a set of histograms and scatter plots showing B10 cell-depleting mAbs in hCD22-Tg mice bind B220⁺B cells. Blood lymphocytes isolated from hCD22-Tg mice given either HB22-103, HB22-107, HB22-115 or an isotype-matched (IgG1) mAb (250 μg/mouse) 7 days earlier in FIG. 16 were assessed for relative HB22 mAb binding by immunofluorescence staining with fluorochrome-conjugated anti-mouse IgG1 isotype-specific antibody. […] Bars indicate means, with significant differences between group means indicated: **, p<0.01; ***, p<0.001.
On to B1, for which the binding result was “binds”.

As to B2, the binding result is “binds”.

B3: the binding result is “binds”.
